Experimental data: paper PMC7698151, “Evidence for Pentapeptide-Dependent and Independent CheB Methylesterases” (International Journal of Molecular Sciences, 2020)
Like-named read-outs stand apart in the source and are kept apart here.

Experiments:
[1] = target: Tar pentapeptide (Escherichia coli); settings: cited from earlier work
[2] = target: McpB (Aer2) pentapeptide (Pseudomonas aeruginosa); settings: cited from earlier work
[3] = target: Tar methylation site (Escherichia coli) (UniProt P07017); settings: cited from earlier work
[4] = target: Tar pentapeptide (Escherichia coli); settings: cited from earlier work; remark: listed apart in the source
[5] = target: P. aeruginosa PAO1 CheB2 D55E mutant (Pseudomonas aeruginosa PAO1) (UniProt Q9I6V9); assay: ITC

Sequence of CheR (P07364 whole entry): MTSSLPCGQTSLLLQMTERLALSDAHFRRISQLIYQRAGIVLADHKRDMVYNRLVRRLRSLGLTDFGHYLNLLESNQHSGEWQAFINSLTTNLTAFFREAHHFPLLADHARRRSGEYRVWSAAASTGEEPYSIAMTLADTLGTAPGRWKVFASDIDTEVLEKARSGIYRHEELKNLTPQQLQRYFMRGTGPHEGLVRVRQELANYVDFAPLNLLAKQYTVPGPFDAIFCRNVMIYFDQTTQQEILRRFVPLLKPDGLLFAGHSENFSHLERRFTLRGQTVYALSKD
Sequence of CheB (P07330 whole entry): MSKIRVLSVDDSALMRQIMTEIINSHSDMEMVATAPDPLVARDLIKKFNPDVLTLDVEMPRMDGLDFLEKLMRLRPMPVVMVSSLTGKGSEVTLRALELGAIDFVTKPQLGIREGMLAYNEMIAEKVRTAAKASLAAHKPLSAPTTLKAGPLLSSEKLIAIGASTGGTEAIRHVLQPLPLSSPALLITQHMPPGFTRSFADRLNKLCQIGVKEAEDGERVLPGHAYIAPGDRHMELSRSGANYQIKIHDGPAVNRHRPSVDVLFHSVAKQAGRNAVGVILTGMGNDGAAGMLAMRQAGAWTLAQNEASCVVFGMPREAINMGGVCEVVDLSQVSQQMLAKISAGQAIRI

For CheB (from UniProt P07330), the Kd [1] is given as 145 µM.
In the case of CheR2 (from UniProt Q9I6V7), the Kd [2] is listed as 0.52 µM.
For CheR (from UniProt P07364), the Kd [3] is given as 150 µM and the Kd [4] is given as 2 µM.
In the case of “[…] pentapeptide of the McpB (Aer2) chemoreceptor”, the Kd [5] is reported as 56 µM.
